The results in this text go back to the supplement of paper PMC10567573.

± gives the standard deviation.

This data set is described as follows: protein stability index of a GFP-peptide fusion (GPS, HEK-293T) (PSI 1-6); higher = more stable. The note with it: c terminus: a fixed tail appended.
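Note: 24-mer peptide tiles fused after GFP, lentivirally expressed, FACS-sorted into six equal bins by GFP/DsRed ratio, decoded by Illumina sequencing, PSI is the read-weighted mean bin number.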

As for YFYDPIERDIEIGFLPWLMNEVEK [RSPH3], the protein stability index (treatment: DMSO) turned out to be 2.04 ± 0.74 and the protein stability index (treatment: MLN4924 1 uM, 8 h) turned out to be 2.42 ± 0.25. The matching figures for YGHELLINTLITSGADTAKCGIHS [ANKRD44]: 2.27 ± 0.38 and 1.99 ± 0.2. The matching figures for YHINSISVNSDCETYMSADDLRIN [PPP2R2C]: 2.89 ± 0.44 and 3.2 ± 0.29. Take YIGFYGKETTNTCILKCNLCSVNI [PDS5B]: the protein stability index came to 2.98 ± 1.6 (treatment: DMSO) and 2.96 ± 1 (treatment: MLN4924 1 uM, 8 h).

Turning to YIMTRDYLTVKVWDLNMENRPIET [PPP2R2B], the protein stability index came out at 2.16 ± 0.5 (treatment: DMSO) and 2.45 ± 0.26 (treatment: MLN4924 1 uM, 8 h). The matching figures for YLILALLSVTISFRIYKSVIQAVQ [RTN3]: 3.42 ± 0.42 and 2.99 ± 0.48. For the sequence YLPKNTHPFLYLSLEISPQNVDVN [MLH1], the protein stability index runs as follows: (treatment: DMSO) 3.23 ± 1.1; (treatment: MLN4924 1 uM, 8 h) 2.09 ± 0.3. On to YLVQGLVEECQAALQNKDTYEPFC [KCTD10], for which the protein stability index reads like this: (treatment: DMSO) 2.32 ± 0.46; (treatment: MLN4924 1 uM, 8 h) 2.65 ± 0.24. In the case of YMLFDPKDSVMQQNLVYYRFHRAR [P3H4], the protein stability index by setting is: (treatment: DMSO) 2.26 ± 0.25; (treatment: MLN4924 1 uM, 8 h) 2.27 ± 0.53.

Consider YMNFRVKACNKAVAGEFSEPVTLE [FSD1], for which the protein stability index (treatment: DMSO) stood at 3.03 ± 0.29 and the protein stability index (treatment: MLN4924 1 uM, 8 h) came out at 2.93 ± 0.46.

YNIKLKWTNQQKLYSRTGDIVEFV [CFHR2] returned a protein stability index (treatment: MLN4924 1 uM, 8 h) of 2.46 ± 0.41. YPTTLGKDRECQSQSLALKEQNNL [ZNF8] gave a protein stability index (treatment: DMSO) of 4.39 ± 0.16 and a protein stability index (treatment: MLN4924 1 uM, 8 h) of 4.52 ± 0.19. As to YQEIFQQLQRSWVKMDQKSKHLKE [TRIM43], the protein stability index came to 2.41 ± 0.32 (treatment: DMSO) and 2.6 ± 0.32 (treatment: MLN4924 1 uM, 8 h). For YQLPQMPDVVVRSFMTWLRSYIKL [MED27], in that order: 2.01 ± 0.13 and 2.25 ± 0.21. For the sequence YRPLKQELQGLDYCKPTRLDLLLD [SPSB1], the protein stability index runs as follows: (treatment: DMSO) 2.77 ± 0.29; (treatment: MLN4924 1 uM, 8 h) 2.6 ± 0.32. For YSLTTSSTHKSSLCKVEIVCPPQS [RAB40A], in that order: 2.64 ± 0.19 and 2.64 ± 0.12. Take YSQDPVYANGGLNYSYRGYGALSS [NOL4L]: the protein stability index was found to be 2.4 ± 0.23 (treatment: DMSO) and 2.71 ± 0.2 (treatment: MLN4924 1 uM, 8 h). On to YSRGYRNRRSSRETREYAPPSRGH [RBMY1A1], for which the protein stability index was determined as 4.38 ± 0.27 (treatment: DMSO) and 4.76 ± 0.23 (treatment: MLN4924 1 uM, 8 h). YTSSQKVSPIQIDGAGRTWQDSDT [TOR1AIP2] came in with a protein stability index (treatment: DMSO) of 3.62 ± 0.36 and a protein stability index (treatment: MLN4924 1 uM, 8 h) of 4.2 ± 0.51. With YVIGGRNETGYLSSVECYNLETNE [KLHL14], the protein stability index runs as follows: (treatment: DMSO) 2.66 ± 0.31; (treatment: MLN4924 1 uM, 8 h) 3.02 ± 0.59. As to YVKPQSCIDIVIRHVAPIPSHYDV [MOSPD3], the protein stability index turned out to be 2.97 ± 0.74 (treatment: DMSO) and 2.74 ± 0.85 (treatment: MLN4924 1 uM, 8 h). The matching figures for YYHRRNEMTTTDDLDFKHHNYKEM [CPXM2]: 3.22 ± 0.33 and 3.35 ± 0.25. YYLRKGKKINSNQLENEQSQENSI [SPANXN3]: the protein stability index was determined as 4.47 ± 0.23 (treatment: DMSO) and 4.23 ± 0.27 (treatment: MLN4924 1 uM, 8 h). For YYNVVLLRYQFSRPGPQSVPLQLS [FCHO1], in that order: 3.13 ± 0.43 and 2.91 ± 0.53.
